{"source": "patent US20090022782A1", "about": "“Blood Retainable Device Exhibiting Selective Degradability in Tumor Tissue” (NATIONAL UNIVERSITY CORP. HOKKAIDO UNIVERSITY, priority 2005, published 2009)", "key": {"MMP-2 [1]": {"target": "T1, MMP-2 (Homo sapiens, UniProt P08253)", "T1 construct": "purchased Sigma", "T1 sequence (P08253 110-660)": "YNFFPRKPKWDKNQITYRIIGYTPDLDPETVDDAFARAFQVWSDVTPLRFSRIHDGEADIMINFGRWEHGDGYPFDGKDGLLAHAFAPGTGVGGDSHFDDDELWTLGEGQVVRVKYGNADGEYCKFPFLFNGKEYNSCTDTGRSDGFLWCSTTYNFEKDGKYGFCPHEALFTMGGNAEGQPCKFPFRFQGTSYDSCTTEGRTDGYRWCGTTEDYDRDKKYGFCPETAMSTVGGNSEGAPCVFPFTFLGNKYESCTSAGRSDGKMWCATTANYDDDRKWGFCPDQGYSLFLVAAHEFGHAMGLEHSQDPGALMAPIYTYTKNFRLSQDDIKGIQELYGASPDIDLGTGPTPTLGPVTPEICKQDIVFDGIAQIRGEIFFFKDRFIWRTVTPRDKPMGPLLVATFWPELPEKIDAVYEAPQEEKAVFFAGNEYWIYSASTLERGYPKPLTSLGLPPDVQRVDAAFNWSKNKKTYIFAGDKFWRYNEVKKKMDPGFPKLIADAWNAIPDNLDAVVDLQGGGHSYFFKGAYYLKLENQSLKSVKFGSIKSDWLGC", "test": "Decomposition of the peptide by MMP-2, reverse phase HPLC", "format": "biochemical", "conditions": "0.5 mM peptide, MMP2 53 nM, 230 nM and 450 nM, 37° C., 2 hours", "description": "Matrix metalloproteinase 2 (MMP-2) was purchased from Sigma. DOPE-PEG was purchased from Avanti. Trypsin was purchased from Life Technologies. DISMIC was purchased from Advantec. Reverse phase HPLC was performed by using Model 1321H1 (GILSON), UV/VIS-155 (GILSON) as a detector, SOSMOSIL 5C18-AR-II (Nacalai Tesque) as a column, and 0.5% TFA-H2O and 0.5% TFA-acetonitrile filtered through Millicup-LH vacuum-driven bottletop filter unit (Millipore) as a mobile phase. The flow rate was 1.0 mL/minute.\nFirst, it was examined whether or not the peptide was decomposed by MMP-2. A 0.5 mM peptide solution (25 μL) dissolved in a solution containing 10 mM HEPES (pH 7.4), 140 mM NaCl and 2 mM CaCl2 was analyzed by reverse phase HPLC. Further, MMP2 was added to the 0.5 mM peptide solution (25 μL) at a final concentration of 53 nM, 230 nM and 450 nM, each mixture was incubated at 37° C. for 2 hours, and then the whole volume of the mixture was analyzed by HPLC to confirm whether or not the peptide was decomposed by MMP2."}, "MMP-2 [2]": {"target": "T1, MMP-2", "test": "Evaluation of PEG cleavage by MMP-2 (aggregation / particle diameter of DOPE liposomes)", "format": "biochemical", "conditions": "for aggregation of the liposomes: DOPE liposomes containing PEG-peptide-DOPE at 10%", "description": "It was evaluated whether or not the PEG-peptide-DOPE obtained in Example 1 was cleavable with MMP. For in vitro evaluation, a system was used with which the cleavage of PEG was detected on the basis of an increase in particle diameter. […] Cylinder-shaped lipids form a lamellar structure (bilayer structure), i.e., a liposome structure, whereas inverse cone-shape lipids form a […] (FIG. 1). It is known that when a PEG-lipid is added at a certain ratio to DOPE, the lipids form a lamellar structure and stably form liposomes. Therefore, if a matrix metalloproteinase is made to act on DOPE-containing liposomes prepared by using PEG-peptide-DOPE, thereby the peptide is decomposed and PEG is cleaved, DOPE molecules from which PEG is cleaved can no longer form liposomes, and take the hexagonal structure to initiate the aggregation. The above hypothesis was adopted as an evaluation method for PEG cleavage. Further, for in vitro evaluation of PEG cleavage, a method of measuring genetic expression activity was adopted. If the interaction of MEND and cell membranes is enhanced by cleavage of PEG, […].\n(§1) A 1 mM lipid solution dissolved in ethanol, of which 125 μL was taken as 100%, was put into test tubes at various molar ratios, and a 1 mM DOPE-PEG solution was also added as required. Chloroform was added in the same volume of ethanol to the mixture in each tube, and the mixture was stirred. Then, the solvent was evaporated in a desiccator to obtain a lipid membrane. After the preparation of the lipid membrane, a solution (250 μL) containing 20 mM HEPES (pH 7.4), 280 mM NaCl, and 4 mM CaCl2 was added, and after hydration for 30 minutes, the mixture was sonicated for 1 minute to prepare liposomes.\n(§2) Then, to the prepared liposomes (50 μL), PBS (10 μL), 230 nM or 5.5 nM MMP-2 in terms of final concentration, and 230 nM bovine serum albumin in terms of final concentration were added, the mixture was incubated at 37° C., and after 2, 8 and 24 hours, the particle diameter was measured. […] Even with the addition of 1% of DOPE-PEG, liposomes having a particle size less than 200 nm and showing stable dispersion was successfully prepared."}, "HT1080 cells": {"tested_on": "HT1080 cells", "test": "Gene expression (luciferase activity) after transfection with MENDs, HT1080 cells", "format": "cell-based, human", "description": "(§3) By using D′MEM added with inactivated FBS (FBS final concentration: 10%), the human fibrosarcoma-derived HT1080 cells were cultured on a sterilized culture dish in a CO2 incubator (37° C., 5% CO2). When the cells reached 70% confluence, the cells were removed from the dish by using 0.5 mM EDTA-PBS, the cell suspension was diluted to a density of 1 to 5×10^4 cells/mL using fresh D′MEM, and the cells were subcultured on a sterilized dish. In a similar manner, human kidney […] HEK293 cells were cultured. In the case of the HEK293 cells, the cells were removed from the dish by using 0.05% Trypsin/0.5 mM EDTA-PBS, and subcultured.\n(§4) One day before the transfection, the HT1080 cells and the HEK293 cells were each inoculated into 1 mL of a medium on a 24-well plate at a density of 4×10^4 cells/well. A sample, prepared to be corresponding to 0.4 μg of DNA, was diluted to 250 μL with FBS- and antibiotic-free D′MEM (hereinafter abbreviated as “D′MEM(−)”) in the case of a serum free medium, or diluted similarly with D′MEM in the case of serum containing medium. […] The luciferase activity (RLU) in 20 μL of the supernatant was measured, and proteins were measured according to the BCA method for the supernatant diluted 5 times with DDW to calculate RLU/mg protein."}, "HEK293 cells": {"tested_on": "HEK293 cells", "test": "Gene expression (luciferase activity) after transfection with MENDs, HEK293 cells", "format": "cell-based, human", "description": "as §3, §4"}, "[3]": {"test": "Particle diameter and zeta-potential of MENDs (Example 3)", "format": "physicochemical", "description": "In order to prepare a negatively charged compaction body, the charge ratio (+/−) was determined to be 1.5 according to the formula (1). To 30 μL of pDNA (0.5 mg/mL), 120 μL of 10 mM HEPES-HCl (pH 7.4) was added. To 5 μL of protamine (2 mg/mL), […] of 10 mM HEPES-HCl (pH 7.4) was added. Protamine was slowly added dropwise to the pDNA solution with stirring by a vortex mixer. Formation of the compaction body was confirmed by measurement of the particle diameter and zeta-potential.\nLipid solutions of 1 mM in ethanol, each of which 125 μL was taken as 100%, were put into test tubes at molar ratios of 30% DOTAP, 40% DOPE, and 30% Chol. As for addition of PEG-lipids, 1 mM PEG-DSPE solution or PEG-peptide-DOPE solution in ethanol was added at a molar ratio of 5% or 15% based on the lipids except for the PEG-lipids, which were taken as 100%. Chloroform was added in the same volume of ethanol to the mixture in each tube, and the mixture was stirred. Then, the solvent was evaporated in a desiccator to obtain a lipid membrane. Then, the compaction body solution (250 μL) was added to the lipid membrane, and the mixture was left standing at room temperature for 15 to 30 minutes for hydration, and then sonicated for 1 to 2 minutes. The particle diameter and the zeta-potential were measured. Any significant difference was not observed between the values measured for MENDs containing PEG-peptide-DOPE and MENDs containing PEG-DSPE, and thus it was considered that equivalent MENDs were successfully prepared."}, "[4]": {"test": "Particle diameter and zeta-potential of compaction body and MENDs (Example 4)", "format": "physicochemical", "conditions": "Example 4, in HBG; PEG-lipid ratio (5% or 15%) not given", "description": "According to the formula (I) mentioned in Example 3, the charge ratio (+/−) was determined to be 1.5, and a compaction body of pDNA coding for luciferase and protamine was prepared in HEPES buffered glucose (10 mM HEPES, pH 7.4, 5% glucose, HBG).\nIn the same manner as that of Example 3, a lipid membrane consisting of 30% DOTAP, 40% DOPE, and 30% Chol was prepared. To this membrane, PEG-DSPE or PEG-peptide-DOPE was added at a molar ratio of 5% or 15%, and the mixture was evaporated to obtain lipid membranes. Then, the compaction body was added to each of these lipid membranes, and the mixtures were sonicated to prepare MEND, PEG-modified MEND containing PEG-DSPE, and PEG-modified MEND containing PEG-peptide-DOPE."}, "[5]": {"test": "Particle diameter and aggregation of DOPE liposomes versus addition ratio of PEG-lipid", "format": "physicochemical", "conditions": "for aggregation on incubation: DOPE liposomes with PEG-peptide-DOPE, 37° C.", "description": "as §1, §2\nAlso in this experiment, liposomes having a particle size less than 200 nm and showing stable dispersion were similarly prepared with the addition of 1% of PEG-peptide-DOPE."}, "[6]": {"conditions": "MEND with PEG-lipid at molar ratio 5%"}, "[7]": {"conditions": "MEND with PEG-lipid at molar ratio 15%"}}, "note": "Ends that are not written are not given here. * marks the point of attachment. DOPE = dioleoylphosphatidylethanolamine, CCCCCCCC/C=C\\CCCCCCCC(=O)OC[C@H](COP(=O)(O)OCCN*)OC(=O)CCCCCCC/C=C\\CCCCCCCC; MeO‑PEG succinate = methoxy poly(ethylene glycol) succinate", "data": [{"substance": "GGGVPLSLYSGGGG [peptide]", "values": [{"measurement": "decomposition of the peptide by MMP-2 (HPLC peak of degradation product)", "setting": "MMP-2 [1]", "value": "peak became larger in an enzyme concentration-dependent manner"}]}, {"substance": "PEG-peptide-DOPE: MeO-PEG succinate bound to Gly-Gly-Gly-Val-Pro-Leu-Ser-Leu-Tyr-Ser-Gly-Gly-Gly-Gly, bound to dioleoylphosphatidylethanolamine; tested as component of liposomes and MENDs ({MeO‑PEG succinate}-GGGVPLSLYSGGGG-{DOPE})", "values": [{"measurement": "aggregation of the liposomes", "setting": "MMP-2 [2]; 5.5 nM MMP-2, 37° C.", "value": "Aggregation of the liposomes was not observed"}, {"measurement": "aggregation of the liposomes", "setting": "MMP-2 [2]; 230 nM BSA, 37° C.", "value": "Aggregation was not observed"}, {"measurement": "aggregation of the liposomes", "setting": "MMP-2 [2]; 230 nM MMP-2, 37° C.", "value": "aggregation was observed"}, {"measurement": "aggregation of the liposomes", "setting": "MMP-2 [2]; in PBS, 37° C.", "value": "Aggregation of the liposomes was not observed"}, {"measurement": "cleavage by MMP-2", "setting": "MMP-2 [2]; lipid in the state of constituting liposomes", "value": "cleaved by MMP-2"}, {"measurement": "increase of gene expression compared with PEG-DSPE", "setting": "HT1080 cells; MEND modified with 5% of PEG", "value": 35, "unit": "times"}, {"measurement": "gene expression activity compared with the PEG-DSPE modification group", "setting": "HT1080 cells; MEND modified with 15% of PEG", "value": "did not give the increase of the gene expression activity"}, {"measurement": "increase of gene expression compared with PEG-DSPE", "setting": "HEK293 cells; MEND modified with 5% of PEG", "value": 5, "unit": "times"}, {"measurement": "gene expression activity compared with the PEG-DSPE modification group", "setting": "HEK293 cells; MEND modified with 15% of PEG", "value": "did not give the increase of the gene expression activity"}, {"measurement": "particle diameter", "setting": "[3]; [6]", "value": 162.2, "unit": "nm"}, {"measurement": "zeta-potential", "setting": "[3]; [6]", "value": "+18.79 mV"}, {"measurement": "particle diameter", "setting": "[3]; [7]", "value": 141.2, "unit": "nm"}, {"measurement": "zeta-potential", "setting": "[3]; [7]", "value": "+2.80 mV"}, {"measurement": "particle diameter", "setting": "[4]", "value": 141, "unit": "nm"}, {"measurement": "ξ -potential", "setting": "[4]", "value": 12.8, "unit": "mV"}, {"measurement": "aggregation on incubation", "setting": "[5]; PEG content up to 5%", "value": "aggregation was observed"}, {"measurement": "aggregation on incubation", "setting": "[5]; addition amount of 10%", "value": "aggregation was not observed"}, {"measurement": "particle size", "setting": "[5]; DOPE liposomes, addition of 1% of PEG-peptide-DOPE", "value": "less than 200 nm"}, {"measurement": "elevation of phase transition temperature compared with DOPE-PEG", "setting": "[5]; DOPE liposomes, suggested by the results", "value": "did not elevate the phase transition temperature as much as DOPE-PEG"}]}]}
